Experimental data as given in the supplement of paper PMC7877785.
± gives the uncertainty stated by the source.

Assay: self-splicing fitness, log relative to wild type (ln ratio); higher = more splicing; Tetrahymena group I intron in knt gene, E. coli kanamycin selection, DiMSum; sequences stand for … in CUCUCU…GGAGGGAAAAGUUAUCAGGCAUGCACCUGGUAGCUAGUCUUUAAACCAAUAGAUUGCAUCGGUUUAAAAGGCAAGACCGUCAAAUUGCGGGAAAGGGGUCAACAGCCGUUCAGUACCAAGUCUCAGGGGAAACUUUGAGAUGGCCUUGCAAAGGGUAUGGUAAUAAGCUGACGGACAUGGUCCUAACCACGCAGCCAAGUCCUAAGUCAACAGAUCUUCUGUUGAUAUGGAUGCAGUUCACAGACUAAAUGUCGGUCGGGGAAGAUGUAUUCUUCUCAUAAGAUAUAGUCGGACCUCUCCUUAAUGGGAGCUAGCGGAUGAAGUGAUGCAACACUGGAGCCGCUGGGAACUAAUUUGUAUGCGAAAGUAUAUUGAUUAGUUUUGGAGUACUCGUGGUCG
Summary of the method: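 Pooled colonies went to amplicon sequencing on an Illumina HiSeq 2500 after six replicate transformations. The plates were LB agar with 100 μg/mL carbenicillin, 50 μM IPTG and 0.2% rhamnose, with or without 25 μg/mL kanamycin, incubated overnight at 37°C or 30°C. The E. coli BL21(DE3) library had all eight P1ex-region intron nucleotides randomised, the intron placed in the knt kanamycin-resistance gene on pET-22b(+). DiMSum fitness is the error-weighted combination of replicate fold changes, kanamycin against none, normalised to wild type.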

Row | Sequence | self-splicing fitness (ln) (30 °C) | self-splicing fitness (ln) (37 °C)
1 | GAAAAGCAAUAUUACGUUAG | -2.27 ± 0.12 | -1.85 ± 0.14
2 | GUCUAGCAAUAUUACGCAAU | -0.524 ± 0.082 | -0.156 ± 0.082
3 | ACACAGCAAUAUUACGCAUC | -3.23 ± 0.21 | -0.58 ± 0.094
4 | CUUGAGCAAUAUUACGCUCG | -1.7 ± 0.17 | -2.65 ± 0.44
5 | AACCAGCAAUAUUACGCAAA | -0.829 ± 0.1 | -0.805 ± 0.11
6 | GGUUAGCAAUAUUACGCAGA | -1.17 ± 0.24 | -2.02 ± 0.26
7 | GGAGAGCAAUAUUACGGUGG | -3.5 ± 0.28 | -2.25 ± 0.23
8 | CGAGAGCAAUAUUACGACUG | -1.29 ± 0.15 | -0.27 ± 0.19
9 | CUUGAGCAAUAUUACGGAGU | -1.09 ± 0.13 | -1.97 ± 0.28
10 | AUAGAGCAAUAUUACGCCAA | -2.44 ± 0.24 | -0.839 ± 0.3
11 | GAGCAGCAAUAUUACGAGCC | -0.545 ± 0.19 | -0.285 ± 0.21
12 | CGAUAGCAAUAUUACGUAUG | -1.22 ± 0.071 | -0.164 ± 0.096
13 | UCGAAGCAAUAUUACGGUCG | -0.668 ± 0.079 | 0.0856 ± 0.11
14 | UCCUAGCAAUAUUACGCCAG | -3.13 ± 0.26 | -2.68 ± 0.26
15 | AGACAGCAAUAUUACGUCUA | -1.31 ± 0.097 | -0.608 ± 0.099
16 | CCAUAGCAAUAUUACGAAUC | -3.22 ± 0.14 | -1.38 ± 0.17
17 | GUCGAGCAAUAUUACGAUUU | -0.559 ± 0.2 | -0.273 ± 0.19
18 | AGAGAGCAAUAUUACGUUAA | -3.32 ± 0.25 | -2.36 ± 0.24
19 | UAACAGCAAUAUUACGUAAG | -1.46 ± 0.07 | -1.25 ± 0.084
20 | GUCGAGCAAUAUUACGAUUC | -1.64 ± 0.24 | -0.941 ± 0.26
21 | AGUUAGCAAUAUUACGACUA | -0.154 ± 0.18 | 0.0802 ± 0.17
22 | GCUCAGCAAUAUUACGUGAG | -4.29 ± 0.25 | -3.23 ± 0.2
23 | CAGCAGCAAUAUUACGUAUG | -2.19 ± 0.1 | -2.5 ± 0.15
24 | ACGAAGCAAUAUUACGCAUA | -1.44 ± 0.08 | -0.782 ± 0.072

Row | Sequence | self-splicing fitness (ln) (30 °C) | self-splicing fitness (ln) (37 °C)
25 | UAUCAGCAAUAUUACGAGCC | -3.24 ± 0.34 | -2.33 ± 0.3
26 | AUAGAGCAAUAUUACGAUAA | -1.23 ± 0.16 | -0.812 ± 0.23
27 | GGUAAGCAAUAUUACGAUCA | -0.121 ± 0.1 | -0.203 ± 0.1
28 | AACGAGCAAUAUUACGGAAA | -3.63 ± 0.23 | -2.65 ± 0.24
29 | AUUCAGCAAUAUUACGGAAC | -2.54 ± 0.15 | -1.01 ± 0.17
30 | CGCGAGCAAUAUUACGGGGA | -1.94 ± 0.28 | -2.41 ± 0.29
31 | CACGAGCAAUAUUACGCAUG | -3.6 ± 0.11 | -2.74 ± 0.15
32 | AAUCAGCAAUAUUACGUUGG | -2.06 ± 0.1 | -1 ± 0.1
33 | UCUAAGCAAUAUUACGCAUC | -2.99 ± 0.13 | -3.33 ± 0.23
34 | AUCUAGCAAUAUUACGCGUU | -1.76 ± 0.096 | -0.994 ± 0.1
35 | CAUUAGCAAUAUUACGUAAG | -0.138 ± 0.057 | 0.358 ± 0.074
36 | CAUGAGCAAUAUUACGUGGA | -3.96 ± 0.47 | -3 ± 0.38
37 | CCGGAGCAAUAUUACGAACG | -0.608 ± 0.16 | 0.0318 ± 0.19
38 | CCUCAGCAAUAUUACGGUAG | -0.514 ± 0.05 | -0.195 ± 0.067
39 | GGGGAGCAAUAUUACGAGGU | -3.44 ± 0.22 | -1.82 ± 0.26
40 | UUGGAGCAAUAUUACGUUUA | -2.44 ± 0.44 | 
41 | GAUUAGCAAUAUUACGCGUG | -1.23 ± 0.091 | 0.595 ± 0.11
42 | AAUAAGCAAUAUUACGUCUC | -1.68 ± 0.11 | -0.799 ± 0.13
43 | CUGGAGCAAUAUUACGUGUU | -3.3 ± 0.16 | -3.31 ± 0.21
44 | ACUCAGCAAUAUUACGUACG | -2.58 ± 0.14 | -0.864 ± 0.11
45 | UGGAAGCAAUAUUACGUGUC |  | -2.38 ± 0.18
46 | AGUGAGCAAUAUUACGUUAC | -3.72 ± 0.47 | 
47 | AUACAGCAAUAUUACGCCAG | -1.79 ± 0.14 | -2.03 ± 0.2
48 | UUAAAGCAAUAUUACGUACA | 0.237 ± 0.088 | 0.0455 ± 0.12

Row | Sequence | self-splicing fitness (ln) (30 °C) | self-splicing fitness (ln) (37 °C)
49 | CCGAAGCAAUAUUACGGCAG | -2.86 ± 0.15 | -1.44 ± 0.16
50 | ACAAAGCAAUAUUACGAUGC | -1.61 ± 0.11 | -1.9 ± 0.15
51 | GGAUAGCAAUAUUACGCUUG | -1.81 ± 0.12 | -1.11 ± 0.16
52 | AGCAAGCAAUAUUACGCUCU | -3 ± 0.22 | -1.57 ± 0.17
53 | UUGAAGCAAUAUUACGACAU | 0.0991 ± 0.013 | 0.28 ± 0.033
54 | UUACAGCAAUAUUACGCCUG | -0.557 ± 0.054 | 0.0548 ± 0.081
55 | AAUAAGCAAUAUUACGGGAC | -3.76 ± 0.3 | -2.17 ± 0.21
56 | CGAAAGCAAUAUUACGCCUU | -2.73 ± 0.44 | -1.11 ± 0.28
57 | GUUUAGCAAUAUUACGCCUA | -0.696 ± 0.28 | -0.827 ± 0.4
58 | UUUGAGCAAUAUUACGAUUA | -2.13 ± 0.41 | -2.41 ± 0.36
59 | UCCCAGCAAUAUUACGAUUU | -3.49 ± 0.11 | -1.52 ± 0.097
60 | UUAUAGCAAUAUUACGAUUC | -2.51 ± 0.27 | -1.17 ± 0.31
61 | CUAAAGCAAUAUUACGCCCC | -1.15 ± 0.45 | 
62 | UACAAGCAAUAUUACGAUCU | -0.941 ± 0.075 | -0.61 ± 0.077
63 | UCAAAGCAAUAUUACGAAUU | -3.32 ± 0.25 | -1.65 ± 0.16
64 | CAACAGCAAUAUUACGUGAG | -0.531 ± 0.049 | -0.233 ± 0.07
65 | CGCUAGCAAUAUUACGUAGA | -2.69 ± 0.14 | -1.54 ± 0.19
66 | ACGAAGCAAUAUUACGAGGU | -3.96 ± 0.22 | -3.57 ± 0.22
67 | GUGUAGCAAUAUUACGUUUA | -2.51 ± 0.23 | -2.01 ± 0.15
68 | AUCCAGCAAUAUUACGCCAA | -2.78 ± 0.22 | -1.71 ± 0.18
69 | GCACAGCAAUAUUACGAGAU | -1.99 ± 0.088 | -0.678 ± 0.081
70 | CAGAAGCAAUAUUACGUGCU | -2.7 ± 0.17 | -1.23 ± 0.14
71 | ACCAAGCAAUAUUACGGCGU | -1 ± 0.05 | 0.0505 ± 0.064
72 | CACGAGCAAUAUUACGUUCC | -2.89 ± 0.34 | -2.15 ± 0.34

Row | Sequence | self-splicing fitness (ln) (30 °C) | self-splicing fitness (ln) (37 °C)
73 | GCAUAGCAAUAUUACGCAAC | -3.96 ± 0.33 | -2.6 ± 0.37
74 | GAACAGCAAUAUUACGCACG | -1.38 ± 0.18 | 0.123 ± 0.13
75 | CUUUAGCAAUAUUACGGGUG | -0.377 ± 0.072 | 0.108 ± 0.091
76 | UCUGAGCAAUAUUACGAUUG | -2.97 ± 0.27 | -2.39 ± 0.33
77 | CGCCAGCAAUAUUACGCGAA | -2.14 ± 0.15 | -1.38 ± 0.15
78 | UCGAAGCAAUAUUACGUUAA | -2.99 ± 0.19 | -0.482 ± 0.14
79 | GUUUAGCAAUAUUACGAAGG | -2.93 ± 0.38 | -1.37 ± 0.26
80 | GUCAAGCAAUAUUACGAAAA | -1.95 ± 0.41 | -2.53 ± 0.31
81 | UGAUAGCAAUAUUACGCACU | -0.651 ± 0.14 | -0.218 ± 0.14
82 | UUAUAGCAAUAUUACGGAGG | -1.68 ± 0.31 | -2.37 ± 0.32
83 | GCGUAGCAAUAUUACGGGCG | -2.97 ± 0.22 | -2.09 ± 0.22
84 | UACAAGCAAUAUUACGGCAG | -0.426 ± 0.078 | -0.134 ± 0.11
85 | GUGAAGCAAUAUUACGUUCC | -1.67 ± 0.17 | -1.16 ± 0.2
86 | UAAAAGCAAUAUUACGUUCC | -3.46 ± 0.3 | -2.57 ± 0.29
87 | UAGUAGCAAUAUUACGAUAC | -2.73 ± 0.44 | 
88 | GAAUAGCAAUAUUACGUUCU | -3.24 ± 0.26 | -1.82 ± 0.27
89 | AGGAAGCAAUAUUACGUCUU | -2.07 ± 0.062 | -1.59 ± 0.08
90 | GGUUAGCAAUAUUACGAUCG | -0.314 ± 0.14 | -0.207 ± 0.27
91 | AAUAAGCAAUAUUACGGCCC | -0.731 ± 0.17 | 0.533 ± 0.27
92 | GACAAGCAAUAUUACGAAAA | -2.27 ± 0.24 | -2.22 ± 0.31
93 | GUUCAGCAAUAUUACGUGGC | -2.08 ± 0.1 | -2.25 ± 0.16
94 | UAAGAGCAAUAUUACGUAUU | -4.58 ± 0.34 | -2.02 ± 0.2
95 | AACCAGCAAUAUUACGUUAU | -2.18 ± 0.055 | -0.941 ± 0.058
96 | CGCUAGCAAUAUUACGACGA | -1.46 ± 0.15 | 0.422 ± 0.16
